Test results: patent US20180142007A1 (published 2018)
Residue numbers refer to the chain shown, from its start. Like-named read-outs stand apart in the source and are kept apart here.

How the values were obtained:
[1] = target: T1, misdisordered truncated tau 151-391/4R (UniProt P10636 468-708); test: SPR; IgG4
[2] = target: T2, full length physiological tau 2N4R (UniProt P10636 1-758); test: SPR; IgG4
tau peptide 282-311 [3] = target: T3, tau peptide 282-311; test: ELISA
T3 peptide: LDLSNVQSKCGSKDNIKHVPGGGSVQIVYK

tau peptide 314-342 [4] = target: T4, tau peptide 314-342; test: ELISA; IgG4
T4 peptide: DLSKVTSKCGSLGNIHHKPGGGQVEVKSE

tau peptide 352-380 [5] = target: T5, tau peptide 352-380; test: ELISA; IgG4
T5 peptide: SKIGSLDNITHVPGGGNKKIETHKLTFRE

tau peptide 256-285 [6] = target: T6, tau peptide 256-285; test: ELISA; IgG4
T6 peptide: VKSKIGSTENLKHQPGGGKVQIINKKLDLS

[7] = target: T1, misdisordered truncated tau 151-391/4R; test: ELISA; IgG1
[8] = target: T2, full length physiological tau 2N4R; test: ELISA; IgG1
tau peptide 314-342 [9] = target: T4, tau peptide 314-342; test: ELISA
tau peptide 352-380 [10] = target: T5, tau peptide 352-380; test: ELISA
tau peptide 256-285 [11] = target: T6, tau peptide 256-285; test: ELISA
tau peptide 282-311 [12] = target: T3, tau peptide 282-311; test: ELISA
[13] = target: T1, misdisordered truncated tau 151-391/4R; test: SPR; IgG1
[14] = target: T2, full length physiological tau 2N4R; test: SPR; IgG1
[15] = target: T1, misdisordered truncated tau 151-391/4R; test: SPR
tau peptide 314-342 [16] = target: T4, tau peptide 314-342; test: ELISA
tau peptide 352-380 [17] = target: T5, tau peptide 352-380; test: ELISA
tau peptide 256-285 [18] = target: T6, tau peptide 256-285; test: ELISA
[19] = target: T1, misdisordered truncated tau 151-391/4R; test: SPR; remark: listed apart in the source
[20] = target: T2, full length physiological tau 2N4R; test: SPR
[21] = target: T1, misdisordered truncated tau 151-391/4R; test: SPR; remark: listed apart in the source
tau peptide 314-342 [22] = target: T4, tau peptide 314-342; test: ELISA
tau peptide 352-380 [23] = target: T5, tau peptide 352-380; test: ELISA
tau peptide 256-285 [24] = target: T6, tau peptide 256-285; test: ELISA
tau peptide 282-311 [25] = target: T3, tau peptide 282-311; test: ELISA
[26] = target: T1, misdisordered truncated tau 151-391/4R; test: ELISA
[27] = target: T1, misdisordered truncated tau 151-391/4R; test: SPR; remark: listed apart in the source
[28] = target: T1, misdisordered truncated tau 151-391/4R; test: SPR; remark: listed apart in the source
[29] = target: T1, misdisordered truncated tau 151-391/4R; test: SPR; remark: listed apart in the source

T2 sequence (P10636 other isoform, or with tags, fused parts or gaps): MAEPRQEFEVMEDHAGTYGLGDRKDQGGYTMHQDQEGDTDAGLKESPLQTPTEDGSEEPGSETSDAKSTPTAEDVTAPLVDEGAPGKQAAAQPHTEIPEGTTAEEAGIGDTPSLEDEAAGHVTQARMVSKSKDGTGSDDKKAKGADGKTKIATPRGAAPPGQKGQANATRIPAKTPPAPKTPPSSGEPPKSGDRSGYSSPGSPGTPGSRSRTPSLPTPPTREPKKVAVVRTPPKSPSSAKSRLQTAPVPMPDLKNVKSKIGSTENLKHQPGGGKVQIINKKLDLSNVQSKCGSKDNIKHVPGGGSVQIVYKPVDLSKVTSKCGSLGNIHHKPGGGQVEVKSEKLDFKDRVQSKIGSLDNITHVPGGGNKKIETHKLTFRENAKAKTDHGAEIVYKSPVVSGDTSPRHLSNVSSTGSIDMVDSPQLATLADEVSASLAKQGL
T1 sequence (P10636 468-708): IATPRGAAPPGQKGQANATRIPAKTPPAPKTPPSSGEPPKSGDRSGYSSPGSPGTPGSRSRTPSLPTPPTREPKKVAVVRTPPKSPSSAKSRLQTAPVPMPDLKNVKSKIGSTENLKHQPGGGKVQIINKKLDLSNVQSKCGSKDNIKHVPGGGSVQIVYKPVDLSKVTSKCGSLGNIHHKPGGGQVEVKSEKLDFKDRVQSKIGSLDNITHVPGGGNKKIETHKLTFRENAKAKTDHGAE

B1: AX016-IgG4, humanized DC8E8 RHD/RKB, IgG4 isotype (antibody)
heavy: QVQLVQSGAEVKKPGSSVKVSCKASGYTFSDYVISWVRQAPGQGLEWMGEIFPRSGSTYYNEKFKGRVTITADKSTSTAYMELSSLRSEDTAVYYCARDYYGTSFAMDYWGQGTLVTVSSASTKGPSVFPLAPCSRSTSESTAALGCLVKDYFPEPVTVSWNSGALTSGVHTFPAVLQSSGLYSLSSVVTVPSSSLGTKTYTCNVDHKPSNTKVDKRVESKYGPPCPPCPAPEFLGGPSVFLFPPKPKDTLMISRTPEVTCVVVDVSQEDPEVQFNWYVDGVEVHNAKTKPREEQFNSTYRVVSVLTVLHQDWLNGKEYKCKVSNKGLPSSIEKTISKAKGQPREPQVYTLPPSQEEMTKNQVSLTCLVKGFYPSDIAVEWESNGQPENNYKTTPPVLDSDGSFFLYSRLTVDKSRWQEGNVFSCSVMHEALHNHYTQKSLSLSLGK
light: DIVMSQSPLSLPVTPGEPASISCKSSQSLLNSRTRKNYLAWYLQKPGQSPQLLIYWASTRESGVPDRFTGSGSGTDFTLKISRVEAEDVGVYYCKQSFYLRTFGQGTKVEIKRTVAAPSVFIFPPSDEQLKSGTASVVCLLNNFYPREAKVQWKVDNALQSGNSQESVTEQDSKDSTYSLSSTLTLSKADYEKHKVYACEVTHQGLSSPVTKSFNRGEC
**Q.** Which results are given for B1?
**A.** Ka [1]: 7.2e+08 M⁻¹; Ka [2]: 6.6e+07 M⁻¹; EC50 (tau peptide 282-311 [3]): 0.00756 µg/mL; EC50 (tau peptide 314-342 [4]): 0.0153 µg/mL; EC50 (tau peptide 352-380 [5]): 0.085 µg/mL; EC50 (tau peptide 256-285 [6]): 0.0139 µg/mL

B2: AX004-IgG1, humanized DC8E8 RHD/RKA, IgG1 isotype (antibody)
heavy: not shown
light: B1 light with S5T
**Q.** Which EC50 [7] does the source give for B2 here?
**A.** 0.0147 µg/mL

**Q.** And the EC50 [8]?
**A.** 0.0532 µg/mL

**Q.** And the EC50 (tau peptide 314-342 [9])?
**A.** 0.0118 µg/mL

**Q.** And the EC50 (tau peptide 352-380 [10])?
**A.** 0.0587 µg/mL

**Q.** And the EC50 (tau peptide 256-285 [11])?
**A.** 0.0121 µg/mL

**Q.** What about the EC50 (tau peptide 282-311 [12]) of the same binder?
**A.** 0.00598 µg/mL

**Q.** And the Ka [13]?
**A.** 1.6e+09 M⁻¹

**Q.** And the Ka [14]?
**A.** 1.1e+08 M⁻¹

B3: AX016-IgG1, humanized DC8E8 RHD/RKB, IgG1 isotype (antibody)
heavy: not shown
light: B1 light
**Q.** With B3 as the binder, how does the EC50 [7] read?
**A.** 0.0137 µg/mL

**Q.** What about the EC50 [8] of the same binder?
**A.** 0.0513 µg/mL

**Q.** What about the EC50 (tau peptide 314-342 [9]) of the same binder?
**A.** 0.0122 µg/mL

**Q.** And the EC50 (tau peptide 352-380 [10])?
**A.** 0.0566 µg/mL

**Q.** And the EC50 (tau peptide 256-285 [11])?
**A.** 0.0117 µg/mL

**Q.** What about the EC50 (tau peptide 282-311 [12]) of the same binder?
**A.** 0.00647 µg/mL

**Q.** What about the Ka [13] of the same binder?
**A.** 1.6e+09 M⁻¹

**Q.** And the Ka [14]?
**A.** 1.9e+08 M⁻¹

B4: AX005-IgG4, humanized DC8E8 RHE/RKA, IgG4 isotype (antibody)
heavy: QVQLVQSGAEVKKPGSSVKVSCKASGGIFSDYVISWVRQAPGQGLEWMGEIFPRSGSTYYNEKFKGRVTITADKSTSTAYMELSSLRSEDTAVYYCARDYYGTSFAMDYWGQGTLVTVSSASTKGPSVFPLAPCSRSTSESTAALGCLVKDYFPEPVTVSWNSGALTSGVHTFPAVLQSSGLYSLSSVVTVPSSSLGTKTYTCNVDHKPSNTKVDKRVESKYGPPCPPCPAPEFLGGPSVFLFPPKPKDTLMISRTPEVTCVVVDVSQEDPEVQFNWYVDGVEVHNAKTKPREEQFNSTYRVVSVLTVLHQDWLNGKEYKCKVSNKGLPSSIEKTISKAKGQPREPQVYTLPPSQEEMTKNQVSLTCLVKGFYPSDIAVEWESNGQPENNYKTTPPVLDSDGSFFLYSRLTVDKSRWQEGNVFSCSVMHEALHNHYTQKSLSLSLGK
light: B1 light with S5T
**Q.** What does the source list for B4?
**A.** EC50 (tau peptide 282-311 [3]): 0.00898 µg/mL; EC50 (tau peptide 314-342 [4]): 0.0745 µg/mL; EC50 (tau peptide 352-380 [5]): 0.397 µg/mL

B5: AX005-IgG1, humanized DC8E8 RHE/RKA, IgG1 isotype (antibody)
heavy: not shown
light: B1 light with S5T
**Q.** How did the EC50 (tau peptide 314-342 [9]) turn out when B5 was run?
**A.** 0.0562 µg/mL

**Q.** And the EC50 (tau peptide 352-380 [10])?
**A.** 0.579 µg/mL

**Q.** And the EC50 (tau peptide 282-311 [12])?
**A.** 0.0068 µg/mL

B6: AX017-IgG1, humanized DC8E8 RHE/RKB, IgG1 isotype (antibody)
heavy: not shown
light: B1 light
**Q.** Which results are given for B6?
**A.** EC50 (tau peptide 314-342 [9]): 0.096 µg/mL; EC50 (tau peptide 352-380 [10]): 0.883 µg/mL; EC50 (tau peptide 282-311 [12]): 0.00766 µg/mL

B7: chimeric DC8E8 (isotype not stated where tested) (antibody)
VH: QVQLQQSGPELVKPGTSVKMPCKASGYIFTDYVISWVKQRTGQGLEWIGEIFPRSGSTYYNEKFKGKATLTADKSSNTAYMQLSSVTSEDSAVYFCARDYYGTSFAMDYWGQGTSVTVSS
light: DIVMSQSPSSLAVSAGEKVTMSCKSSQSLLNSRTRKNYLAWYQQKPGQSPKLLIYWASTRESGVPDRFTGSGSGTDFTLTISSVQAEDLAVYYCKQSFYLRTFGGGTKLDIKRTVAAPSVFIFPPSDEQLKSGTASVVCLLNNFYPREAKVQWKVDNALQSGNSQESVTEQDSKDSTYSLSSTLTLSKADYEKHKVYACEVTHQGLSSPVTKSFNRGEC
**Q.** Which results are given for B7?
**A.** Kd [15]: 10.4 nM; EC50 (tau peptide 314-342 [16]): 0.0265 µg/mL; EC50 (tau peptide 352-380 [17]): 0.0814 µg/mL; EC50 (tau peptide 256-285 [18]): 0.0297 µg/mL; EC50 (tau peptide 282-311 [3]): 0.00852 µg/mL; Ka [19]: 4.2e+08 M⁻¹; Ka [20]: 4.4e+07 M⁻¹; Kd [21]: 10.4 nM; EC50 (tau peptide 314-342 [22]): 0.0173 µg/mL; EC50 (tau peptide 352-380 [23]): 0.087 µg/mL; EC50 (tau peptide 256-285 [24]): 0.0212 µg/mL; EC50 (tau peptide 282-311 [25]): 0.00731 µg/mL

B8: mouse monoclonal antibody DC8E8 (antibody)
heavy: QVQLQQSGPELVKPGTSVKMPCKASGYIFTDYVISWVKQRTGQGLEWIGEIFPRSGSTYYNEKFKGKATLTADKSSNTAYMQLSSVTSEDSAVYFCARDYYGTSFAMDYWGQGTSVTVSSAKTTPPSVYPLAPGSAAQTNSMVTLGCLVKGYFPEPVTVTWNSGSLSSGVHTFPAVLQSDLYTLSSSVTVPSSTWPSQTVTCNVAHPASSTKVDKKIVPRDCGCKPCICTVPEVSSVFIFPPKPKDVLTITLTPKVTCVVVDISKDDPEVQFSWFVDDVEVHTAQTKPREEQINSTFRSVSELPIMHQDWLNGKEFKCRVNSAAFPAPIEKTISKTKGRPKAPQVYTIPPPKEQMAKDKVSLTCMITNFFPEDITVEWQWNGQPAENYKNTQPIMDTDGSYFVYSKLNVQKSNWEAGNTFTCSVLHEGLHNHHTEKSLSHSPGK
VL: DIVMSQSPSSLAVSAGEKVTMSCKSSQSLLNSRTRKNYLAWYQQKPGQSPKLLIYWASTRESGVPDRFTGSGSGTDFTLTISSVQAEDLAVYYCKQSFYLRTFGGGTKLDIK
**Q.** Which EC50 [26] does the source give for B8 here?
**A.** 0.0448 µg/mL

**Q.** And the Ka [19]?
**A.** 1.9e+08 M⁻¹

**Q.** And the Ka [20]?
**A.** 3.9e+07 M⁻¹

**Q.** What about the Kd [21] of the same binder?
**A.** 10.4 nM

**Q.** What about the EC50 (tau peptide 314-342 [22]) of the same binder?
**A.** 0.039 µg/mL

**Q.** And the EC50 (tau peptide 352-380 [23])?
**A.** 0.213 µg/mL

**Q.** And the EC50 (tau peptide 256-285 [24])?
**A.** 0.0433 µg/mL

**Q.** And the EC50 (tau peptide 282-311 [25])?
**A.** 0.0118 µg/mL

**Q.** What about the Kd [27] of the same binder?
**A.** 10.4 nM

B9: AX004-IgG4, humanized DC8E8 RHD/RKA, IgG4 isotype (antibody)
heavy: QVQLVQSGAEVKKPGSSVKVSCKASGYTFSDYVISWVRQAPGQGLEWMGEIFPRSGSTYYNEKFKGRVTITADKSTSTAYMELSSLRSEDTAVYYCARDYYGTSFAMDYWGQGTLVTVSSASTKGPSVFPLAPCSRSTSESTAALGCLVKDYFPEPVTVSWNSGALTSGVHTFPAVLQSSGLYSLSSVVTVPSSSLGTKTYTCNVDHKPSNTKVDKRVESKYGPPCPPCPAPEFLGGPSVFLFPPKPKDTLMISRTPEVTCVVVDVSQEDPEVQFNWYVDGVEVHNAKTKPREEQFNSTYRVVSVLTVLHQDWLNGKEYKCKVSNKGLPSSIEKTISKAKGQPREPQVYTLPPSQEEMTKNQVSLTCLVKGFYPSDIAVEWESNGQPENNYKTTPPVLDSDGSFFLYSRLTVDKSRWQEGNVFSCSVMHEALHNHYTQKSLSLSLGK
light: B1 light with S5T
**Q.** Which results are given for B9?
**A.** Ka [1]: 7.75e+08 M⁻¹; Ka [2]: 6.5e+07 M⁻¹; EC50 (tau peptide 282-311 [3]): 0.0067 µg/mL; EC50 (tau peptide 314-342 [4]): 0.013 µg/mL; EC50 (tau peptide 352-380 [5]): 0.0814 µg/mL; EC50 (tau peptide 256-285 [6]): 0.0132 µg/mL

B10: chimeric DC8E8, human IgG1/kappa (antibody)
heavy: not shown
light: B7 light
**Q.** How did the EC50 [26] turn out when B10 was run?
**A.** 0.0214 µg/mL

B11: AX017-IgG4, humanized DC8E8 RHE/RKB, IgG4 isotype (antibody)
heavy: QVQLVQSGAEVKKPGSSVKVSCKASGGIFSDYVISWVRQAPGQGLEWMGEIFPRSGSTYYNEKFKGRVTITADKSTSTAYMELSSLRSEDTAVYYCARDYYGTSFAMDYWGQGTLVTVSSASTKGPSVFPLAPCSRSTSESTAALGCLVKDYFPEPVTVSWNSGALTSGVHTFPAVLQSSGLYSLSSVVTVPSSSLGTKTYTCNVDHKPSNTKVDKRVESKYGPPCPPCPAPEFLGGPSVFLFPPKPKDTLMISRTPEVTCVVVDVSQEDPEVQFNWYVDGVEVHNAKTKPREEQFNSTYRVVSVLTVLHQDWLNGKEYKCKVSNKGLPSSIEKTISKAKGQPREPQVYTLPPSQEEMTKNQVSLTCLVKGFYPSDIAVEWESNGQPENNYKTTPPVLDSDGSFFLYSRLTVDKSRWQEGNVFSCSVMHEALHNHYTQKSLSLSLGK
light: B1 light
**Q.** How did the EC50 (tau peptide 282-311 [3]) turn out when B11 was run?
**A.** 0.00901 µg/mL

**Q.** And the EC50 (tau peptide 314-342 [4])?
**A.** 0.0726 µg/mL

**Q.** And the EC50 (tau peptide 352-380 [5])?
**A.** 0.385 µg/mL

B12: chimeric DC8E8, human IgG4/kappa (antibody)
heavy: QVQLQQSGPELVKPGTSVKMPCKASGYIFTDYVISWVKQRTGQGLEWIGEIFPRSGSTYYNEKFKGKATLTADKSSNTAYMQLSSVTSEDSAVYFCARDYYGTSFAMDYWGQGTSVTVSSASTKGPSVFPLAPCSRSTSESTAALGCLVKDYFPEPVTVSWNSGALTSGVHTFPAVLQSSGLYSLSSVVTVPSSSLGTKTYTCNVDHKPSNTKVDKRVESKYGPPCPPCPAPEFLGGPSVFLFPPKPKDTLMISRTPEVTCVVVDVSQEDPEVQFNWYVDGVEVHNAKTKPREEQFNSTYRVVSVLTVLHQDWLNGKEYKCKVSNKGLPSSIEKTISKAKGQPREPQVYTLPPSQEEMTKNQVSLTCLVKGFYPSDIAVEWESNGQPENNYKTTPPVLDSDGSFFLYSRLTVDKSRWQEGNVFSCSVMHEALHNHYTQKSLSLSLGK
light: B7 light
**Q.** With B12 as the binder, how does the EC50 [26] read?
**A.** 0.0507 µg/mL

B13: AX004, humanized DC8E8 RHD/RKA (isotype not stated where tested) (antibody)
VH: QVQLVQSGAEVKKPGSSVKVSCKASGYTFSDYVISWVRQAPGQGLEWMGEIFPRSGSTYYNEKFKGRVTITADKSTSTAYMELSSLRSEDTAVYYCARDYYGTSFAMDYWGQGTLVTVSS
light: B1 light with S5T
**Q.** B13 was tested. Which Kd [28] did it give?
**A.** 14.7 nM

**Q.** What about the Kd [21] of the same binder?
**A.** 14.7 nM

B14: AX016, humanized DC8E8 RHD/RKB (isotype not stated where tested) (antibody)
VH: B13 VH
light: B1 light
**Q.** With B14 as the binder, how does the Kd [29] read?
**A.** 9.39 nM

**Q.** What about the Kd [21] of the same binder?
**A.** 9.39 nM
